In publication PMC8867601, “The TERB1 MYB domain suppresses telomere erosion in meiotic prophase I”:

T1: mTERB1-MYB (Mus musculus, UniProt Q8C0V1 707-760)
T1 sequence: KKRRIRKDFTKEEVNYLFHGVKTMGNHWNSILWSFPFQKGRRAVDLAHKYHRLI

T2: hTERB1-MYB (Homo sapiens, UniProt Q8NA31 666-719)
T2 sequence: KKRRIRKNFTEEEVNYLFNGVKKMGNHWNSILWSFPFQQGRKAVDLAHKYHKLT

B1: dsDNA_scrambled_8-mer (dsDNA)
DNA 1: GACAGCGATGAGAACTAATTCGTGTGCTTGCTGACTGATATCGTGACT
DNA 2: AGTCACGATATCAGTCAGCAAGCACACGAATTAGTTCTCATCGCTGTC
B2: dsDNA_telo_8-mer (TTAGGG)8 (dsDNA)
DNA 1: TTAGGGTTAGGGTTAGGGTTAGGGTTAGGGTTAGGGTTAGGGTTAGGG
DNA 2: CCCTAACCCTAACCCTAACCCTAACCCTAACCCTAACCCTAACCCTAA

Experiments:
mTERB1-MYB [1] = biological target: T1, mTERB1-MYB; test: EMSA; 2-8 uM protein, 150 nM probe; 50 mM Tris-HCl pH 8.0, 6.5% glycerol, 20 mM NaCl, 5 mM DTT, 150 nM probe, 10 ul, 30 min on ice; 4-20% TBE native gel; settings: protein: recombinant; tags: 6xHis (not cleaved); label: 32P (T4 PNK)
hTERB1-MYB [2] = biological target: T2, hTERB1-MYB; test: as above; settings: protein: recombinant; tags: none after Ulp1 cleavage of His-Smt3; label: 32P (T4 PNK)
mTERB1-MYB [3] = biological target: T1, mTERB1-MYB; test: EMSA; 150 nM probe; 50 mM Tris-HCl pH 8.0, 6.5% glycerol, 20 mM NaCl, 5 mM DTT, 150 nM probe, 10 ul, 30 min on ice; 4-20% TBE native gel; settings: protein: recombinant; tags: 6xHis (not cleaved); label: 32P (T4 PNK)
hTRF2-MYB = hTRF2-MYB (Homo sapiens, UniProt Q15554 488-542); test: as above; settings: protein: recombinant; tags: none after Ulp1 cleavage of 10xHis-Smt3; label: 32P (T4 PNK)
Sequence of hTRF2-MYB (Q15554 488-542): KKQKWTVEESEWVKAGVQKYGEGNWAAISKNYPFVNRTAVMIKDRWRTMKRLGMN

hTERB1-MYB [4] = biological target: T2, hTERB1-MYB; test: as above; settings: protein: recombinant; tags: none after Ulp1 cleavage of His-Smt3; label: 32P (T4 PNK)

Binder | binding result (mTERB1-MYB [1]) | binding result (hTERB1-MYB [2]) | binding result (mTERB1-MYB [3]) | binding result (hTRF2-MYB) | binding result (hTERB1-MYB [4])
B1 | no binding | no binding |  |  | 
B2 |  |  | no binding | binds | no binding
